Assay [1] deals with BKV VP1 (BK virus (BKV), AS strain) (UniProt P14996). The experiment in a line: direct ELISA. (ELISA stands for enzyme-linked immunosorbent assay.)
In assay [2] the target is BKV VP1 VLP (BK virus (BKV), AS strain) (UniProt P14996). The experiment in a line: direct ELISA.
Assay [3] concerns the target JCV VP1 VLP (JC virus (JCV), Mad-1 strain) (UniProt P03089). The experiment in a line: direct ELISA.
The target in assay [4] is BKV VP1 (BK virus (BKV), AS strain) (UniProt P14996). The experiment in a line: direct ELISA, plate coated with antigen at 5 µg/ml in carbonate buffer; EC50 by non-linear regression (GraphPad Prism).
The target in assay [5] is BKV VP1 VLP (BK virus (BKV), AS strain) (UniProt P14996). The experiment in a line: direct ELISA, plate coated with antigen at 5 µg/ml in reassociation buffer (VLP); EC50 by non-linear regression (GraphPad Prism).

Chain of BKV VP1 (BK virus (BKV), AS strain) (P14996 whole entry): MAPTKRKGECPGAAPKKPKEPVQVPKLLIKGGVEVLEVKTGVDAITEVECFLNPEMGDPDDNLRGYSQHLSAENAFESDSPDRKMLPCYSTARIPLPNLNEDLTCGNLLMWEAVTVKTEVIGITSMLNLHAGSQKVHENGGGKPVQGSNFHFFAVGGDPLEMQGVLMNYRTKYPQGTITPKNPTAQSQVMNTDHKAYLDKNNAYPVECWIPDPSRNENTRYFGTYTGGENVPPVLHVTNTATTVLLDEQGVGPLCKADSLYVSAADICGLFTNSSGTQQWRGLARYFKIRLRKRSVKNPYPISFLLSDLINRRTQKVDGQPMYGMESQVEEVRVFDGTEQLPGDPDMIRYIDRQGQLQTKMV
Chain of BKV VP1 VLP (BK virus (BKV), AS strain) (P14996 whole entry): as above
Chain of JCV VP1 VLP (JC virus (JCV), Mad-1 strain) (P03089 whole entry): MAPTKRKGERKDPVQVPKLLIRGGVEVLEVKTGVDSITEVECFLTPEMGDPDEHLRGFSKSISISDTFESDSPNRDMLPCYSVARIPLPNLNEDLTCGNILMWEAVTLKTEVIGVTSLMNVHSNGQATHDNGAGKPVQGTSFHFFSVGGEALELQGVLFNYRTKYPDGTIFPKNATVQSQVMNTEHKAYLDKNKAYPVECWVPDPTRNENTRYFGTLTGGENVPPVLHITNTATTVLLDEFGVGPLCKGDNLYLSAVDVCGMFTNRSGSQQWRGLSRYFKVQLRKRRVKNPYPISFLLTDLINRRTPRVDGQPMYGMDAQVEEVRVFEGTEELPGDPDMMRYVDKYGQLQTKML

B1: NI-307.5H3 (antibody, V domains shown)
VH: QVQLQESGPGLLKPLGTLSLICDVSGDSISSSNWWSWVRQSPRKGLEWIGEIYHSGRTNYNPSLTNRVTISVDKSKNQFSLNLNSVTAADTGVYYCARWDYYYNNDYYIRGFDIWGQGTMVTVSS
VL: EIVLTQSPGILSLSPGERATLSCRASQSVDSNYLAWYQQKPGQAPRLLIYSTSTRAAGVPDRFSGSGSGTDFALTISGLEPEDFAVYYCQQWGGSPPITFGQGTRLEIK
With B1, the figures for the EC50 in assay [1] and in assay [2] were 0.362 nM and 0.288 nM, respectively.

B2: NI-307.19F10 (antibody, V domains shown)
VH: EVQLVESGGGLVQPGGSVSLSCAASGFTFPVYWMHWVRQAPEKGLMWVSRISPDGTIVDYAGSVKGRFTVSRDNAKNILYLQIQRLTAEDTAVYFCTKDFDVASGFWGQGTLVTVSS
VL: QSALTQPPSASGSPGQSVTISCTGSKSDVGTCHFVSWYQQHPGKVPKLVIYEGNKRPSGVPDRFSASKSGNTASLTISGLQPGDEADYYCSTCAGPNNYVFGTGTKVTVL
With B2, the EC50 in assay [1] came out at 2.41 nM; in assay [2] it was 1.1 nM.

B3: NI-307.25G10 (antibody, V domains shown)
VH: EVQLVESGGGLVQPGGSLRLSCVASGIIFKDYDFHWVRQVKEKGLEWVSAIGTAGDPYYAASVKGRFTVSRENGKNSVYLRMNNVGAGDTALYYCTSGNYFDRGSFRPSAFDMWGQGTMVTVSS
VL: EIVLTQSPGTLSLSPGERATLSCWASQSVSSNYLAWYQHKPGQAPRLLIFRASRRATDIPERFSAGGSGTDFTLTISRLEAEDSAVYYCQEYGSAPPASITFGQGTRLEIK
For the molecule B3, the EC50 in assay [1] came to 0.514 nM; in assay [2] it was 0.172 nM.

B4: NI-307.6A2 (antibody, V domains shown)
VH: QVQLQESGPGLVKPSETLSLTCAVSGGSVSSSYWYSWVRQLPGKGLEWIGEIFHTGDTNYNPSLESRVTISIDTSKNQLSLDVTSATAADTAVYYCARDYCTDSGCDSDALDVWGHGTMVTVSS
VL: QSALTQPASVSGSPGQSITISCTGTTKDVGNYNLVSWYQQHPGKAPRLVIYEVSERPSGVSNRFSGSKSGNTASLTISGLQAEDEADYHCCSYAGSGTSVFGGGTKVTVL
As to B4, the half-maximal effective concentration (EC50) came out at 1.79 nM in assay [1] and 1.17 nM in assay [2].

B5: NI-307.1E1 (antibody, V domains shown)
VH: EVQLVESGGGLVKPGGSLRLSCAASGFIFSDAWMNWVRQAPGKGLEWVGHIKSRPAGGTTEYAAPVKGRFTISRDDSTDTLYLQMNNLKAEDTAVYYCSTGHYGVYGLGTLVTVSS
VL: DIQMTQSPSTLSASVGDRVTITCRASQSIRDYLAWYQQKPGKAPKLLIYDGSILEGGVPSRFSGSVSGTDFTLTISSLQSDDFATYYCQQYTSYSSWTFGQGTKVEIK
On to B5, for which the concentration giving a half-maximal response (EC50) was determined as 6.05 nM in assay [1], 281 nM in assay [3] and 11 nM in assay [2].

B6: NI-307.26E10 (antibody, V domains shown)
VH: EVQLVESGGGLVLPGGSLRLSCAVSGFTVRNEYMRWARQAPGRGLEWVSVIYRDGQTHHADTVKGRFDVSKDTSKNTMYLQMHNLRVDDTAIYYCARGHYGPWGQGTLVTVSS
VL: DIQMTQSPSTLPASVGDRVTITCRASQSINNWLAWYQQKPGKAPNLLIYDASNLETGVPSRFSGSGSGTEFTLTISSLQPDDFATYYCQQYNSHSHTWTFGQGTKVEIK
On to B6, for which the 50% effective concentration (EC50) in assay [1] stood at 1.35 nM; in assay [2] it was 0.74 nM.

B7: NI-307.43E8 (antibody, V domains shown)
VH: EVQLVESGGDVVQPGRSLRLSCAASGFAFSIYAMNWVRQAPGKGLEWVALISTSGTEHYADSVKGRFTISRDNSKNTLFLQINSLRVEDTAVYYCARDLDSTGYYENNYWGQGTLVTVSS
VL: DVVMTQSPLSSPVSLGQPASISCRSSHSLVHSNGDTYLSWLQQRPGQPPRLLIYKISNRFSGVPDRFSGSGAGTDFTLKISRVEAEDVGVYFCMQATSFPRTFGQGTKVEIK
For B7, the half-maximal effective concentration (EC50) was found to be 0.34 nM in assay [4] and 0.38 nM in assay [5].

B8: NI-307.3G4 (antibody, V domains shown)
VH: QVQLVQSGAELKKPGAAVKVSCQASGYNFLSYGINWVRQIPGQGLQWLGWISTYDGTMNYDQKPDNRVTVTTDTSSSTVYLELRGLRSDDTGVYYCVRDRCAGAGCSHSLGYWGQGTLVTVSS
VL: DIQMTQSPSALSASVGDRVTISCRASQNINTQLNWYQEKPGKAPELLIYGAFNLQSGAPSTFSGSGSGTDFTLTITSLQPEDFASYYCQQGFHAPYTFGRGTKVDIK
Take B8: the values for the concentration for a half-maximal effect (EC50) in assay [1] and in assay [2] were 27.4 nM and 16.4 nM, respectively.

B9: NI-307.57D5 (antibody, V domains shown)
VH: EVQLVESGGGLAQPGGSLRLSCAGSGFTLSDFAMSWVRRAPGKGLEWVSSLTPSGRNSFYSDSVKGRFTISRDNWKNTLYLEMNLLRPEDTAVYYCARPGAPKNSDSKYSYVRVDFQHWGQGTLVTVSS
VL: NFMLTQPHSVSESPGRTVTISCTRSSGSIANNFVQWYQHRPGSAPTTLIYEDDQRPSGVPDRFSGSVDSFSNSASLTISGLKTEDEADYFCQSYDNHNWVFGGGTTLTVL
For B9, the figures for the EC50 in assay [1] and in assay [2] were 37.5 nM and 104 nM, respectively.

B10: NI-307.24F3 (antibody, V domains shown)
VH: QVQLQESGGGVVQPGRSLRLSCAASGFSFNRYGMHWVRQAPGKGLEWLAVISNDGVNTHYADSVKGRFTISRDNSKSTLYLQASSLRVEDTAVYYCAGYYYGSGTSLFFYWGQGTLVTVSS
VL: EIVLTQSPDSLAVSLGERATINCKSSQTVLYSSNNQNYLAWYQQKPGQPPKLLLYWASTRESGVPDRFSGSGSGTDFTLTISSLQPEDVAVYYCQQYYTAPYTFGQGTKVEIK
Turning to B10, the EC50 in assay [1] came to 1.04 nM; in assay [2], 28.8 nM.

B11: NI-307.18E12 (antibody, V domains shown)
VH: QVQLQQWGAGLLKPSETLSLTCAVYGDSFSGFFWAWIRQTPGTGLEWIGEIQHGGSPTYNPSFESRLTISTDASKSQVSLKMTSVTVTDTAIYYCARCIRGKYGSGSLQLWSQGTLVTVSS
VL: DIQLTQSPSFLSASVGDRVTITCRASQDINYHLAWYRQKPGKAPDLLIHSAHTLHIGVSSRFSGSGSGTEFTLTIHTLQPEDFATYYCHQPKTFPPTFGGGTKVDIK
On to B11, for which the figures for the EC50 in assay [4] and in assay [5] were 61.5 nM and 111 nM, respectively.

B12: NI-307.24C6 (antibody, V domains shown)
VH: QLQLQESGPGLVKPSGTLSLICVVSGSSIRSNIWWWNWVRQSPGKGLEWIGEIYHSGSTNYSPSLKSRVTMSVDNSKNQFSLKMSSVTAADTAVYFCAINTRTSISGVLYDTFDVWGQGTMVTVSS
VL: EIVLTQSPATLSLSSGERATLSCRASQSVSGYLAWYQQKPGQAPRLLIYDGSNRATGIPARFSGSGSGTDFTLTISSLEPEDFAVYYCQHRSNWPMYTFGQGTKLEIK
For the molecule B12, the EC50 in assay [1] is 0.816 nM; in assay [2] it was 0.396 nM.

B13: NI-307.78C3 (antibody, V domains shown)
VH: QVQLQESGPGLVKPSGTLSLTCTVSGGSISGRIWWSWVRQPPGKGLEWIGEIYHSGSTNYSPSLRGRVTISVDTSKQHFSLKMTSVTAADTAMYYCVRGELALGFDSWGQGTLVTVSS
VL: QSALTQPPSASGSPGQSVTISCTGTSSDVGGYNSVSWYQQHPRRAPKLMIYEVSKRPSGVPDRFSGSKSGNTASLTVSGLQADDEAHYYCSSYAGSNNLVFGGGTMLTVL
For the molecule B13, the EC50 came to 1.96 nM in assay [1] and 0.939 nM in assay [2].

B14: NI-307.43A11 (antibody, V domains shown)
VH: QVQLQESGPGLVKPSGTLSLTCAVTGGSISSSNWWSWVRQSPGKGLEWIGEIHHDGNLNYNPLLKSRVSMSLDRSKNQFSLKLTSVTAADTAVYYCARWDFFFDSSYYIRGFDLWGQGTMVTVSS
VL: ETTLTQSPGTLSLSPGERVTLSCRASQSVDRNYLAWYQQKPGQSPRLLIYSASRRATGIPDRFSGSGSGTDFTLTISRLEPEDFVVYYCQQYGGSPPITFGQGTRLEIK
For B14, the results for the 50% effective concentration (EC50) in assay [1] and in assay [2] were 9.7 nM and 10 nM, respectively.

In general, EC50 refers to the midpoint of the concentration-response curve.

These data come from patent US20160052996A1.
